Data published in publication PMC6642547.

Biological target: human GITR-Fc (human) (UniProt Q9Y5U5)
Experiment: not stated; binding to and dissociation from the GITR-Fc receptors measured in real time, equilibrium binding constants (KD) calculated; instrument and who was immobilised not told in what was shown

human GITR-Fc (human), sequence (Q9Y5U5 26-162): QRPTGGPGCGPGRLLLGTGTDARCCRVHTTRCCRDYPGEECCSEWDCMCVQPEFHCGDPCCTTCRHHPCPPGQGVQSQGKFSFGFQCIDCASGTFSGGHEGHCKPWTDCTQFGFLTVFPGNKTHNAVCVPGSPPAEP

## HERA-GITRL (hexavalent TNF receptor agonist; single-chain GITRL-receptor-binding-domain fused to a silenced human IgG1 Fc) (from UniProt Q9UNG2 56-177; Q9UNG2 56-177; Q9UNG2 56-177) (Fc fusion)
  Kd: 0.366 nM
